Data published in patent US20080138335A1.

Key:
[1] = target: CD40 expressed on Ramos [ATCC] cells (UniProt P25942); assay: cell-based or functional assay
[2] = target: CD40 expressed on Ramos [ATCC] cells (UniProt P25942); assay: flow cytometry (FACS) on Ramos cells expressing CD40, negative control at 2 ug/ml, FIG. 3
[3] = target: CD40 expressed on Ramos [ATCC] cells (UniProt P25942); assay: flow cytometry (FACS) on Ramos cells expressing CD40, negative control at 2 ug/ml, FIG. 1A
[4] = target: CD40 expressed on Ramos [ATCC] cells (UniProt P25942); assay: flow cytometry (FACS) on Ramos cells expressing CD40, negative control at 2 ug/ml, FIG. 1B
[5] = target: CD40 expressed on Ramos [ATCC] cells (UniProt P25942); assay: flow cytometry (FACS) on Ramos cells expressing CD40, negative control at 2 ug/ml, FIG. 1C

Sequence of CD40 expressed on Ramos [ATCC] cells (P25942 21-277 limits assumed): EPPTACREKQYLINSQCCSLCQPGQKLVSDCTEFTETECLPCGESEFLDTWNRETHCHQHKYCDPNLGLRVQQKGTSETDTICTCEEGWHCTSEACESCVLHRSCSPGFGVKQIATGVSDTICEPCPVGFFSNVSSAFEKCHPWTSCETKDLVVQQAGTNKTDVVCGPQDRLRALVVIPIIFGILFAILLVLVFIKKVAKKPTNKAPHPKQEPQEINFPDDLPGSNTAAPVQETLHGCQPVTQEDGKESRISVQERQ

CD95 expression level in Ramos cells stimulated with soluble CD40 ligand, isotype control of FIG. 4 (average fluorescence intensity) [1]: 27.2
CD95 expression level in Ramos cells, isotype control of FIG. 2A (average fluorescence intensity) [1]: 7.58
CD95 expression level in Ramos cells, isotype control of FIG. 2B (average fluorescence intensity) [1]: 7.58
CD95 expression level in Ramos cells, isotype control of FIG. 2C (average fluorescence intensity) [1]: 6.29
average fluorescence intensity (average fluorescence intensity) [2]: 5.01
average fluorescence intensity (average fluorescence intensity) [3]: 7.15
average fluorescence intensity (average fluorescence intensity) [4]: 7.15
average fluorescence intensity (average fluorescence intensity) [5]: 5.01
Substance: human IgG1 antibody against human serum albumin
